Patent US20220008527A1 (AGENUS, published 2022)
Values belong to the binder of their own block, whether it stands above or below them.

Tests used:
[1] = target: T1, recombinant human heat shock cognate 71 kDa protein (Hsc70) (human, UniProt P11142 1-646, limits assumed); experiment: SEC of peptide-Hsc70 mixture; peptide:Hsc70 molar ratio 1:1
T1 construct: also called rhHsc70; human Hsc70

[2] = target: T1, recombinant human heat shock cognate 71 …; experiment: SEC of peptide-Hsc70 mixture; peptide:Hsc70 molar ratio 0.5:1
[3] = target: T1, recombinant human heat shock cognate 71 …; experiment: SEC of peptide-Hsc70 mixture; peptide:Hsc70 molar ratio 0.25:1
[4] = target: T1, recombinant human heat shock cognate 71 …; experiment: SEC of peptide-Hsc70 mixture; peptide:Hsc70 molar ratio 4:1
[5] = target: T1, recombinant human heat shock cognate 71 …; experiment: SEC of peptide-Hsc70 mixture; peptide:Hsc70 molar ratio 2:1
[6] = target: T1, recombinant human heat shock cognate 71 …; experiment: size exclusion chromatography of polypeptide-Hsc70 mixtures, molar ratios 0.125:1 to 4:1 (FIG. 3A)

T1 sequence (P11142 whole entry): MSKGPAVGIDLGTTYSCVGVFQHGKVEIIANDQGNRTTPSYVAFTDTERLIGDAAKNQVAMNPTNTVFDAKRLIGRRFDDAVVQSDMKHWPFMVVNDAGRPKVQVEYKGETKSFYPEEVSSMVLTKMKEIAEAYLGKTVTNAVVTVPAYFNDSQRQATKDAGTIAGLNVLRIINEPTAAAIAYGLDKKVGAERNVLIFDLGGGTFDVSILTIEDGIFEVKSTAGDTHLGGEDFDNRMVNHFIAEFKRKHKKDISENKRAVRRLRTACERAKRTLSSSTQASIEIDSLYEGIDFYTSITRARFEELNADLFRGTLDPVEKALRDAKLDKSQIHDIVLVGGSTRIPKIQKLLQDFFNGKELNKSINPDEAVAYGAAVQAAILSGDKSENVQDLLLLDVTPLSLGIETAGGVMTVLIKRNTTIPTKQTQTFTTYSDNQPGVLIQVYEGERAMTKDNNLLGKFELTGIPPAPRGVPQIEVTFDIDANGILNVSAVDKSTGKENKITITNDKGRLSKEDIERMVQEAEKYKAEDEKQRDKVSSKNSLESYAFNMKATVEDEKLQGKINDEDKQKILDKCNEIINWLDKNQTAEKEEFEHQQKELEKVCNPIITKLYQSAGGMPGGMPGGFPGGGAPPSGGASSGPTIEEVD

Percent complexation with Hsc70 [1]: 66.5% | Percent complexation with Hsc70 [2]: 43.5% | Percent complexation with Hsc70 [3]: 22.7% | Percent complexation with Hsc70 [4]: 83.9% | Percent complexation with Hsc70 [5]: 78.8%
Binder: FFRKNWLKLWK (Synthetic peptide) [PEP058]

Percent complexation with Hsc70 [1]: 48.7% | Percent complexation with Hsc70 [2]: 32% | Percent complexation with Hsc70 [3]: 19.2% | Percent complexation with Hsc70 [4]: 78.8% | Percent complexation with Hsc70 [5]: 64.8%
Binder: FFRKNRLLLTG (Synthetic peptide) [PEP002]

Percent complexation with Hsc70 [1]: 54.8% | Percent complexation with Hsc70 [2]: 32.7% | Percent complexation with Hsc70 [3]: 16% | Percent complexation with Hsc70 [4]: 77.6% | Percent complexation with Hsc70 [5]: 67.6%
Binder: FFRKNRLWLTG (Synthetic peptide) [PEP005]

Percent complexation with Hsc70 [1]: 69.6% | Percent complexation with Hsc70 [2]: 48.3% | Percent complexation with Hsc70 [3]: 25.6% | Percent complexation with Hsc70 [4]: 87.7% | Percent complexation with Hsc70 [5]: 81.9%
Binder: FFRKNWIRITW (Synthetic peptide) [PEP013]

Percent complexation with Hsc70 [1]: 75.6% | Percent complexation with Hsc70 [2]: 46.4% | Percent complexation with Hsc70 [3]: 24% | Percent complexation with Hsc70 [4]: 87.5% | Percent complexation with Hsc70 [5]: 84.1%
Binder: FRNWLRLTW (Synthetic peptide) [PEP028]

Percent complexation with Hsc70 [1]: 77% | Percent complexation with Hsc70 [2]: 49% | Percent complexation with Hsc70 [3]: 19.1% | Percent complexation with Hsc70 [4]: 90% | Percent complexation with Hsc70 [5]: 85.6%
Binder: FFRKNFLRLTF (Synthetic peptide) [PEP027]

binding result [6]: binds
B1: polypeptide LGVVRPRALHRELDLVDDSPTPGSPGSFFRKNWLRLTW (SEQ ID NO: 77) (peptide)
peptide: LGVVRPRALHRELDLVDDSPTPGSPGSFFRKNWLRLTW
notes: also called polypeptide comprising PEP006; PEP006-containing polypeptide

Percent complexation with Hsc70 [1]: 81.5% | Percent complexation with Hsc70 [2]: 53.4% | Percent complexation with Hsc70 [3]: 25.4% | Percent complexation with Hsc70 [4]: 91.8% | Percent complexation with Hsc70 [5]: 88.3%
Binder: FFRKNWLRLTW (Synthetic peptide) [PEP006]

Percent complexation with Hsc70 [1]: 79.2% | Percent complexation with Hsc70 [2]: 58.2% | Percent complexation with Hsc70 [3]: 29.9% | Percent complexation with Hsc70 [4]: 89.5% | Percent complexation with Hsc70 [5]: 86.2%
Binder: FFRKNWLKLTW (Synthetic peptide) [PEP012]

Percent complexation with Hsc70 [1]: 61.8% | Percent complexation with Hsc70 [2]: 38.3% | Percent complexation with Hsc70 [3]: 24.4% | Percent complexation with Hsc70 [4]: 81.6% | Percent complexation with Hsc70 [5]: 79.1%
Binder: FFRKFWLRLTW (Synthetic peptide) [PEP008]

Percent complexation with Hsc70 [1]: 75.9% | Percent complexation with Hsc70 [2]: 52.2% | Percent complexation with Hsc70 [3]: 24.1% | Percent complexation with Hsc70 [4]: 86.3% | Percent complexation with Hsc70 [5]: 83.7%
Binder: FFRKNWLKLKW (Synthetic peptide) [PEP055]

Percent complexation with Hsc70 [1]: 64.9% | Percent complexation with Hsc70 [2]: 42.2% | Percent complexation with Hsc70 [3]: 19.1% | Percent complexation with Hsc70 [4]: 86.5% | Percent complexation with Hsc70 [5]: 79.3%
Binder: FFRKNWLRLFW (Synthetic peptide) [PEP010]

Percent complexation with Hsc70 [1]: 67.2% | Percent complexation with Hsc70 [2]: 45.6% | Percent complexation with Hsc70 [3]: 26.8% | Percent complexation with Hsc70 [4]: 87.6% | Percent complexation with Hsc70 [5]: 81.3%
Binder: FFRKNWLLLTW (Synthetic peptide) [PEP003]

Percent complexation with Hsc70 [1]: 81.6% | Percent complexation with Hsc70 [2]: 58.2% | Percent complexation with Hsc70 [3]: 31.2% | Percent complexation with Hsc70 [4]: 90.4% | Percent complexation with Hsc70 [5]: 87.8%
Binder: FFRKNWLRLKW (Synthetic peptide) [PEP011]

Percent complexation with Hsc70 [1]: 81% | Percent complexation with Hsc70 [2]: 63.5% | Percent complexation with Hsc70 [3]: 32.8% | Percent complexation with Hsc70 [4]: 89% | Percent complexation with Hsc70 [5]: 85.3%
Binder: FFRKNWLRLLW (Synthetic peptide) [PEP009]

Percent complexation with Hsc70 [1]: 80.9% | Percent complexation with Hsc70 [2]: 54.4% | Percent complexation with Hsc70 [3]: 29.3% | Percent complexation with Hsc70 [4]: 90.3% | Percent complexation with Hsc70 [5]: 88.1%
Binder: FFRKQWLRLTW (Synthetic peptide) [PEP014]

Percent complexation with Hsc70 [1]: 72.2% | Percent complexation with Hsc70 [2]: 50% | Percent complexation with Hsc70 [3]: 24.9% | Percent complexation with Hsc70 [4]: 88.3% | Percent complexation with Hsc70 [5]: 82.8%
Binder: FFRKNWLKLRW (Synthetic peptide) [PEP057]

Percent complexation with Hsc70 [1]: 68.1% | Percent complexation with Hsc70 [2]: 44.7% | Percent complexation with Hsc70 [3]: 23.4% | Percent complexation with Hsc70 [4]: 90.1% | Percent complexation with Hsc70 [5]: 82.5%
Binder: FFRKNLLRLTG (Synthetic peptide) [PEP001]

Percent complexation with Hsc70 [1]: 75.6% | Percent complexation with Hsc70 [2]: 48.1% | Percent complexation with Hsc70 [3]: 22.5% | Percent complexation with Hsc70 [4]: 86.6% | Percent complexation with Hsc70 [5]: 82.9%
Binder: FFRKNLLRLTW (Synthetic peptide) [PEP155]

Percent complexation with Hsc70 [1]: 46.8% | Percent complexation with Hsc70 [2]: 29% | Percent complexation with Hsc70 [3]: 15.4% | Percent complexation with Hsc70 [4]: 75.3% | Percent complexation with Hsc70 [5]: 62.5%
Binder: FFRKNLLRWTG (Synthetic peptide) [PEP004]
